Measurements taken from US5789237, “Nucleic acid sequences coding for or complementary to nucleic acid sequences coding for interleukin 9 receptor” (Ludwig Institute for Cancer Research, dated 1998).

T1: purified recombinant murine IL9, 125I labelled (murine, UniProt P15247, 125I label)
T1 sequence: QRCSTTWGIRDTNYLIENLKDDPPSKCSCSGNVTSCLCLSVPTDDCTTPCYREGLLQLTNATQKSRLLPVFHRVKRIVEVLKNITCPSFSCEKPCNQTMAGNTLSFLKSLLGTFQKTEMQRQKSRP


Biological target: T1, purified recombinant murine IL9, 125I …
Assay: Scatchard analysis on transfected COS cells
Procedure: In order to make sure that clone p9RA1 and all subsequent clones did in fact express IL9R. Scatchard analysis was carried out on transfected COS cells, following Goodwin et al., Cell 60: 941–951 (1990). […] This is slightly higher than the dissociation constant measured on TS1 cells previously, i.e., 67 pM.

Kd	Binder
126 pM	murine IL-9 receptor encoded by clone p9RC4 (receptor) VSVPEQGGGGQKAGAFTCLSNSIYRIDCHWSAPELGQESRAWLLFTSNQVTEIKHKCTFWDSMCTLVLPFEEVFLPFDNFTITLHRCIMGQEQVSLVDSQYLPRRHIKLDPPSDLQSNVSSGRCVLTWGINLALEPLITSLSYELAFKRQEEAWEARHKDRIVGVTWLILEAVELNPGSIYEARLRVQMTLESYEDKTEGEYYKSHWSEWSQPVSFPSPQRRQGLLVPRWQWSASILVVVPIFLLLTGFVHLLFKLSPRLKRIFYQNIPSPEAFFHPLYSVYHGDFQSWTGARRAGPQARQNGVSTSSAGSESSIWEAVATLTYSPACPVQFACLKWEATAPGFPGLPGSEHVLPAGCLELEGQPSAYLPQEDWAPLGSARPPPPDSDSGSSDYCMLDCCEECHLSAFPGHTESPELTLAQPVALPVSSRA
194 pM	murine IL-9 receptor encoded by clone p9RA1 (receptor) VSVPEQGGGGQKAGAFTCLSNSIYRIDCHWSAPELGQESRAWLLFTSNQVTEIKHKCTFWDSMCTLVLPFEEVFLPFDNFTITLHRCIMGQEQVSLVDSQYLPRRHIKLDPPSDLQSNVSSGRCVLTWGINLALEPLITSLSYELAFKRQEEAWEQARHKDRIVGVTWLILEAVELNPGSIYEARLRVQMTLESYEDKTEGEYYKSHWSEWSQPVSFPSPQRRQGLLVPRWQWSASILVVVPIFLLLTGFVHLLFKLSPRLKRIFYQNIPSPEAFFHPLYSVYHGDFQSWTGARRAGPQARQNGVSTSSAGSESSIWEAVATLTYSPACPVQFACLKWEATA
